B1: TOG array regulator of axonemal microtubules protein 1 (Homo sapiens), Q9Y4F4 (parent)
chain: MAAAPSALLLLPPFPVLSTYRLQSRSRPSAPETDDSRVGGIMRGEKNYYFRGAAGDHGSCPTTTSPLASALLMPSEAVSSSWSESGGGLSGGDEEDTRLLQLLRTARDPSEAFQALQAALPRRGGRLGFPRRKEALYRALGRVLVEGGSDEKRLCLQLLSDVLRGQGEAGQLEEAFSLALLPQLVVSLREENPALRKDALQILHICLKRSPGEVLRTLIQQGLESTDARLRASTALLLPILLTTEDLLLGLDLTEVIISLARKLGDQETEEESETAFSALQQIGERLGQDRFQSYISRLPSALRRHYNRRLESQFGSQVPYYLELEASGFPEDPLPCAVTLSNSNLKFGIIPQELHSRLLDQEDYKNRTQAVEELKQVLGKFNPSSTPHSSLVGFISLLYNLLDDSNFKVVHGTLEVLHLLVIRLGEQVQQFLGPVIAASVKVLADNKLVIKQEYMKIFLKLMKEVGPQQVLCLLLEHLKHKHSRVREEVVNICICSLLTYPSEDFDLPKLSFDLAPALVDSKRRVRQAALEAFAVLASSMGSGKTSILFKAVDTVELQDNGDGVMNAVQARLARKTLPRLTEQGFVEYAVLMPSSAGGRSNHLAHGADTDWLLAGNRTQSAHCHCGDHVRDSMHIYGSYSPTICTRRVLSAGKGKNKLPWENEQPGIMGENQTSTSKDIEQFSTYDFIPSAKLKLSQGMPVNDDLCFSRKRVSRNLFQNSRDFNPDCLPLCAAGTTGTHQTNLSGKCAQLGFSQICGKTGSVGSDLQFLGTTSSHQEKVYASLNFGSKTQQTFGSQTECTSSNGQNPSPGAYILPSYPVSSPRTSPKHTSPLIISPKKSQDNSVNFSNSWPLKSFEGLSKPSPQKKLVSQKSSDPTGRNHGENSQEKPPVQLTPALVRSPSSRRGLNGTKPVPPIPRGISLLPDKADLSTVGHKKKEPDDIWKCEKDSLPIDLSELNFKDKDLDQEEMHSSLRSLRNSAAKKRAKLSGSTSDLESPDSAMKLDLTMDSPSLSSSPNINSYSESGVYSQESLTSSLSTTPQGKRIMSDIFPTFGSKPCPTRLSSAKKKISHIAEQSPSAGSSSNPQQISSFDFTTTKALSEDSVVVVGKGVFGSLSSAPATCSQSVISSVENGDTFSIKQSIEPPSGIYGRSVQQNISSYLDVENEKDAKVSISKSTYNKMRQKRKEEKELFHNKDCEKKEKNSWERMRHTGTEKMASESETPTGAISQYKERMPSVTHSPEIMDLSELRPFSKPEIALTEALRLLADEDWEKKIEGLNFIRCLAAFHSEILNTKLHETNFAVVQEVKNLRSGVSRAAVVCLSDLFTYLKKSMDQELDTTVKVLLHKAGESNTFIREDVDKALRAMVNNVTPARAVVSLINGGQRYYGRKMLFFMMCHPNFEKMLEKYVPSKDLPYIKDSVRNLQQKGLGEIPLDTPSAKGRRSHTGSVGNTRSSSVSRDAFNSAERAVTEVREVTRKSVPRNSLESAEYLKLITGLLNAKDFRDRINGIKQLLSDTENNQDLVVGNIVKIFDAFKSRLHDSNSKVNLVALETMHKMIPLLRDHLSPIINMLIPAIVDNNLNSKNPGIYAAATNVVQALSQHVDNYLLLQPFCTKAQFLNGKAKQDMTEKLADIVTELYQRKPHATEQKVLVVLWHLLGNMTNSGSLPGAGGNIRTATAKLSKALFAQMGQNLLNQAASQPPHIKKSLEELLDMTILNEL
partner: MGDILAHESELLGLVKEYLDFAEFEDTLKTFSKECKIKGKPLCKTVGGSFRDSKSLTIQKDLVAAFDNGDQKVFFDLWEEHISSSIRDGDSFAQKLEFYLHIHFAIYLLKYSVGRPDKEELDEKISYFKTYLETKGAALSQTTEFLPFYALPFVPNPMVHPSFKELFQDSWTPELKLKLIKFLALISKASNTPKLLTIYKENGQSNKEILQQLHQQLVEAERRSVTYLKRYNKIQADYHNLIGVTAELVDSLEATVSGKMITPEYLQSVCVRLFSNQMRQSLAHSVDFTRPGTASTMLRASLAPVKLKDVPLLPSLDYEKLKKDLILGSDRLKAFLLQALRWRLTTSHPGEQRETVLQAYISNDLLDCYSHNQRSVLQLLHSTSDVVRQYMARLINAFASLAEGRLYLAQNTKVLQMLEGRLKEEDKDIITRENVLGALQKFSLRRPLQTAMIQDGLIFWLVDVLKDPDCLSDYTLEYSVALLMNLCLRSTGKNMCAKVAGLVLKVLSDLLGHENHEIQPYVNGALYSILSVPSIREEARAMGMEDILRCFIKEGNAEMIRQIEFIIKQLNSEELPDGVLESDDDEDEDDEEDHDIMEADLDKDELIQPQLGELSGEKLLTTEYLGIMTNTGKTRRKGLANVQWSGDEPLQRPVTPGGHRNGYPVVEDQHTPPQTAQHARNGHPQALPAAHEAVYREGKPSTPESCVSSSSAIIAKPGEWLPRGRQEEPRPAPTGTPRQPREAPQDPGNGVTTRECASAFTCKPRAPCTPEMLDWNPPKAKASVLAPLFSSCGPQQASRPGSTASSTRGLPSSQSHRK

Variants of: B1
Conditions: with armc9_human ARMC9, Q7Z3E5

effect of a mutation on the interaction | Variant
with no effect | R1311C
disrupting interaction strength | R368W
disrupting interaction strength | L375P
